Consider four molecules from article PMC4118983, “Structural Insights into Calcium-Bound S100P and the V Domain of the RAGE Complex” (PLoS ONE, 2014).

As usually defined, the Kd is the free concentration of one partner at which half of the binding sites on the other are occupied at equilibrium, for simple one-to-one binding. The term stoichiometry N denotes a count of units in the complex or per binding partner.

Several values for one entry are separate records, joined by “and”; a condition that tells them apart may be missing. Equal values may be shown once.

The target of series [1] is T1, Recombinant RAGE V domain (residues 24–121) (UniProt Q15109 24-121). The experiment in a line: cell-based or functional assay.
In series [2] the target is T1, Recombinant RAGE V domain (residues …). The experiment in a line: ITC; S100P (2.0 mM, syringe) titrated into RAGE V domain (0.06 mM, cell); MicroCal VP-ITC; 25°C; 20 mM Tris-HCl pH 7.0, 100 mM NaCl, 4 mM CaCl2; single-site model; similar approach for the S100P mutants. Conditions: both partners purified.
Series [3] concerns the molecule itself. The experiment in a line: SEC; S100P proteins on a Superdex 75 column (1.6×60 cm), last step of purification. (In general: In gel filtration, larger molecules generally elute earlier.)
The target in series [4] is T1, Recombinant RAGE V domain (residues …). The experiment in a line: other fluorescence titration; intrinsic tryptophan fluorescence of 2 µM RAGE V domain (excitation 295 nm, emission 348.5 nm), S100P added in increments; 20 mM Tris-HCl pH 7.0, 100 mM NaCl, 4 mM CaCl2; 25°C; one-site binding model. The following applies: both partners purified.

T1 sequence (Q15109 24-121): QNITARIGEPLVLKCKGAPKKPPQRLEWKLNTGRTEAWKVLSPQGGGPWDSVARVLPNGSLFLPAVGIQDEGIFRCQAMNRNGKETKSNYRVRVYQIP

B1: Recombinant wild-type S100P (residues 1–95), calcium-bound (natural protein, UniProt P25815 1-95, looked up)
chain: MTELETAMGMIIDVFSRYSGSEGSTQTLTKGELKVLMEKELPGFLQSGKDKDAVDKLLKDLDANGDAQVDFSEFIVFVAAITSACHKYFEKAGLK
notes: S100P, residues 1-95; 15N-labelled or unlabelled in the NMR experiments; it names no tag; also called WS100P; source: E. coli BL21(DE3), pET-20b(+), purified (size exclusion chromatography, Superdex 75)
With B1, the “SW-480 cell proliferation (MTT assay, 48 h), 100 nM wild-type S100P, viable cell count against the control” value in series [1] was about 1.5 fold. Further, in series [2], the Kd came to 6.2 ± 0.1 µM, the dH stood at 4.094 ± 0.02 kcal/mol and the “stoichiometry N” value turned out to be 1.07 ± 0.03. Also, the “stoichiometry N” value in series [3] is 2. Besides, in series [4], the Kd is about 6.8 µM.

B2: S100P E5A single mutant (natural protein, UniProt P25815 1-95, looked up)
chain: MTELATAMGMIIDVFSRYSGSEGSTQTLTKGELKVLMEKELPGFLQSGKDKDAVDKLLKDLDANGDAQVDFSEFIVFVAAITSACHKYFEKAGLK
notes: S100P, residues 1-95, with E5A; Used with 4 mM CaCl2; source: E. coli BL21(DE3), pET-20b(+), purified (size exclusion chromatography, Superdex 75)
For the molecule B2, the Kd in series [2] was 22.8 µM and 23.6 µM. Also, the “stoichiometry N” value in series [3] is 2.

B3: S100P D13A single mutant (natural protein, UniProt P25815 1-95, looked up)
chain: MTELETAMGMIIAVFSRYSGSEGSTQTLTKGELKVLMEKELPGFLQSGKDKDAVDKLLKDLDANGDAQVDFSEFIVFVAAITSACHKYFEKAGLK
notes: S100P, residues 1-95, with D13A; Used with 4 mM CaCl2; source: E. coli BL21(DE3), pET-20b(+), purified (size exclusion chromatography, Superdex 75)
Consider B3, for which the Kd in series [2] is 878 µM. Moreover, the “stoichiometry N” value in series [3] was 2.

B4: S100P F44G/Y88G/F89G triple mutant (natural protein, UniProt P25815 1-95, looked up)
chain: MTELETAMGMIIDVFSRYSGSEGSTQTLTKGELKVLMEKELPGGLQSGKDKDAVDKLLKDLDANGDAQVDFSEFIVFVAAITSACHKGGEKAGLK
notes: S100P, residues 1-95, with F44G, Y88G and F89G; Section 2.2 prints 'F44G/Y89G/F89G'; every other place prints F44G/Y88G/F89G; Used with 4 mM CaCl2; also called S100P F44G/Y89G/F89G (as printed in the methods); source: E. coli BL21(DE3), pET-20b(+), purified (size exclusion chromatography, Superdex 75)
In the case of B4, in series [3], the “stoichiometry N” value was determined as 2.
